Patent US20260265381A1 (Hoffmann-La Roche, published 2026)

T1: rat RT1 (SEQ ID NO: 43) (rat)
T1 construct: Recombinant single-chain peptide-MHC complex construct (peptide, β2M, MHC class I molecule); also called rat RT1A β2M MHC class I complex
T1 chain: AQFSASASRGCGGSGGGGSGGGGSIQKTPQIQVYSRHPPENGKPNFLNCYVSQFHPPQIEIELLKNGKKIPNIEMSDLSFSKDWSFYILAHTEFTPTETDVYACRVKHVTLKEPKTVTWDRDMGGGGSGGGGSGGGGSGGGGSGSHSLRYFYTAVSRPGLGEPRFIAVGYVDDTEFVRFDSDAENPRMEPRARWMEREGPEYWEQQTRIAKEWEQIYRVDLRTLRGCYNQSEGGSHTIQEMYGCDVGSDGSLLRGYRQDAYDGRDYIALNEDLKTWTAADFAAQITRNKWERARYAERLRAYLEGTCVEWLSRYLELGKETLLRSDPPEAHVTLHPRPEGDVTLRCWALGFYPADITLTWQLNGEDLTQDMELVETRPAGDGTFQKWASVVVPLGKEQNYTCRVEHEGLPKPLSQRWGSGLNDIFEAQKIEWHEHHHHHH


Experiments:
[1] = molecular target: T2, recombinant single-chain HLA-G monomer/human HLA-G β2M MHC class I complex (human); experiment: SPR relative active concentration; Ref. (frozen at -80 C)
T2 construct: also called wt-HLA-G complex; wt-HLA-G antigen

[2] = molecular target: T2, recombinant single-chain HLA-G …; experiment: SPR relative active concentration; after 13 days His pH 6.0 at 40 C
[3] = molecular target: T2, recombinant single-chain HLA-G …; experiment: SPR relative active concentration; after 13 days PBS pH 7.4 at 37 C
[4] = molecular target: T3, human HLA-G expressed on cells (JEG3 cells, natural; SKOV3 cells transfected with recombinant HLA-G) (human, UniProt P17693 25-338); experiment: flow cytometry; JEG3 cells pre-incubated with antibody, competitor ILT2-c-Myc-Fc at 10 ug/ml
T3 construct: also called SKOV3 HLA-G

rat RT1 (SEQ ID NO: 43) = molecular target: T1, rat RT1 (SEQ ID NO: 43); experiment: SPR (Biacore T200, 25 C); antibody immobilized on CM3 chip, single-chain peptide-MHC as analyte
[5] = molecular target: T4, human HLA-G β2M MHC class I complex, wherein the HLA-G specific amino acids have been replaced by HLA-A … (human); experiment: as above
T4 construct: Recombinant single-chain peptide-MHC complex construct; also called HLA-A consensus on HLA-G frame; degrafted HLA-G

[6] = molecular target: T2, recombinant single-chain HLA-G …; experiment: SPR multi cycle kinetics (Biacore T200, 25 C); antibody captured via Fc on CM3 chip, HLA-G complex as analyte
[7] = molecular target: T2, recombinant single-chain HLA-G …; experiment: SPR single cycle kinetics (Biacore T200, 25 C); antibody captured via Fc on CM3 chip, HLA-G complex as analyte
[8] = molecular target: T3, human HLA-G expressed on cells (JEG3 …); experiment: flow cytometry on JEG3 cells (natural HLA-G); antibody at 2 µg/ml per legend paragraph 51 (10 µg/ml per paragraph 491); detection with goat anti-human IgG (H+L) Alexa 488
[9] = molecular target: T3, human HLA-G expressed on cells (JEG3 …); experiment: flow cytometry on SKOV3 HLA-G cells (SKOV3 transfected with HLA-G); antibody at 2 µg/ml per legend paragraph 51 (10 µg/ml per paragraph 491); detection with goat anti-human IgG (H+L) Alexa 488
[10] = molecular target: T2, recombinant single-chain HLA-G …; experiment: SPR multi cycle kinetics
[11] = molecular target: T5, human CD3 expressed on cells (Jurkat NFAT reporter cells; human T cells isolated from PBMCs) (human, UniProt P07766 23-207); experiment: flow cytometry on Jurkat NFAT cells; IgG1 PGLALA format; detection with PE anti-human IgG Fc F(ab')2
T5 construct: on cells it is part of the CD3/TCR complex; also called CD3 on Jurkat cells; CD3 expressed on T-cells
T5 sequence (P07766 23-207 limits assumed): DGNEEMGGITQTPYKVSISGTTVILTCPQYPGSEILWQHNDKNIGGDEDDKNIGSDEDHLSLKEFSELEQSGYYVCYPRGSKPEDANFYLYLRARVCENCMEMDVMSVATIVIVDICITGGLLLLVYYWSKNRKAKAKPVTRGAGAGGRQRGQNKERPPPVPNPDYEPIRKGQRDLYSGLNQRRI

Binder	relative HLA-G binding signal compared to Ref (as 100%), by SPR RAC [1]	relative HLA-G binding signal compared to Ref (as 100%), by SPR RAC [2]	relative HLA-G binding signal compared to Ref (as 100%), by SPR RAC [3]	inhibition of ILT2 binding to Jeg3 cells [4]	binding result (rat RT1 (SEQ ID NO: 43))	binding result [5]	Kd [6]	koff [6]	kon [6]	t½ [6]	Kd [7]	koff [7]	kon [7]	t½ [7]	MFI [8]	MFI [9]	factor of loss of binding affinity compared to HLA-G-0090 [10]	EC50 (read off the curve) [11]
HLA-G-0090 (antibody, IgG1, V domains shown, N-glycosylation motif NSS in CDR-L1 at light chain positions 31 to 33 (Fab glycosylation detected), the parental antibody was expressed alongside them; also called parental antibody) VH: QVQLQQSGPGLLKPSQTLSLTCAISGDSVSSNRAAWNWIRQSPSRGLEWLGRTYYRSKWYNDYAVSVQGRITLIPDTSKNQFSLRLNSVTPEDTAVYYCASVRAVAPFDYWGQGVLVTVSS VL: not shown	100%	99%	96%	72%	no binding	no binding	1.4 nM	0.00178 s⁻¹	1.3e+06 M⁻¹ s⁻¹	6.5 min	1.2 nM	0.00138 s⁻¹	1.19e+06 M⁻¹ s⁻¹	8.35 min	6060	13100	–	–
HLA-G-0090-VL-S32P (antibody, IgG1, V domains shown, also called HLA-G-0090-S32P) VH: QVQLQQSGPGLLKPSQTLSLTCAISGDSVSSNRAAWNWIRQSPSRGLEWLGRTYYRSKWYNDYAVSVQGRITLIPDTSKNQFSLRLNSVTPEDTAVYYCASVRAVAPFDYWGQGVLVTVSS VL: not shown	100%	99%	98%	72%	no binding	no binding	1.2 nM	0.00157 s⁻¹	1.27e+06 M⁻¹ s⁻¹	7.34 min	1 nM	0.00124 s⁻¹	1.19e+06 M⁻¹ s⁻¹	9.29 min	6330	13900	–	–
HLA-G-0090-VL-S33A (antibody, IgG1, V domains shown, also called HLA-G-0090-S33A) VH: QVQLQQSGPGLLKPSQTLSLTCAISGDSVSSNRAAWNWIRQSPSRGLEWLGRTYYRSKWYNDYAVSVQGRITLIPDTSKNQFSLRLNSVTPEDTAVYYCASVRAVAPFDYWGQGVLVTVSS VL: not shown	100%	99%	96%	72%	no binding	no binding	1.2 nM	0.00149 s⁻¹	1.24e+06 M⁻¹ s⁻¹	7.76 min	1 nM	0.00124 s⁻¹	1.24e+06 M⁻¹ s⁻¹	9.3 min	6380	14300	–	–
HLA-G-0090-VL-S33D (antibody, IgG1, V domains shown, also called HLA-G-0090-S33D) VH: QVQLQQSGPGLLKPSQTLSLTCAISGDSVSSNRAAWNWIRQSPSRGLEWLGRTYYRSKWYNDYAVSVQGRITLIPDTSKNQFSLRLNSVTPEDTAVYYCASVRAVAPFDYWGQGVLVTVSS VL: not shown	–	–	–	–	–	–	7.4 nM	0.00667 s⁻¹	897000 M⁻¹ s⁻¹	1.73 min	4.8 nM	0.00344 s⁻¹	717000 M⁻¹ s⁻¹	3.36 min	–	–	5 fold	–
P035-093 (P035) human IgG1 PGLALA (antibody, V domains shown) VH: EVQLLESGGGLVQPGGSLRLSCAASGFTFSSYAMNWVRQAPGKGLEWVSRIRSKYNNYATYYADSVKGRFTISRDDSKNTLYLQMNSLRAEDTAVYYCVRASNFPASYVSYFAYWGQGTLVTVSS VL: QAVVTQEPSLTVSPGGTVTLTCGSSTGAVTTSNYANWVQEKPGQAFRGLIGGTNKRAPGTPARFSGSLLGGKAALTLSGAQPEDEAEYYCALWYSNLWVFGGGTKLTVLR	–	–	–	–	–	–	–	–	–	–	–	–	–	–	–	–	–	~0.5 nM
CD3orig human IgG1 PGLALA (antibody, V domains shown, Human IgG1 format with P329G L234A L235A mutations in the Fc region) VH: not shown VL: QAVVTQEPSLTVSPGGTVTLTCGSSTGAVTTSNYANWVQEKPGQAFRGLIGGTNKRAPGTPARFSGSLLGGKAALTLSGAQPEDEAEYYCALWYSNLWVFGGGTKLTVLR	–	–	–	–	–	–	–	–	–	–	–	–	–	–	–	–	–	~0.8 nM
